# Where “and” joins values, the source holds several entries; their conditions need not be identical. Equal entries are not always repeated.
# Target: plate-bound HA
# Experiment: ELISA
substance,measurement,value
NKp30-Fc: long (canonical) ectodomain of NKp30 fused to the Fc portion of human IgG1 (from UniProt O14931 19-135) (Fc fusion),fold stronger ELISA labeling than NKp46-Fc,1.5 fold and 2 fold

# Source: article PMC3161980
